Consider two proteins from article PMC5292662, “PKU mutation p.G46S prevents the stereospecific binding of L‐phenylalanine to the dimer of human phenylalanine hydroxylase regulatory domain” (FEBS Open Bio, 2017).

The data set concerns the molecule itself. As to the kind of experiment: SEC; HiLoad Superdex 200 HR column (1.6 cm × 60 cm), 20 mM Na‐Hepes, 0.2 M NaCl, pH 7.0, 0.38 mL·min^−1, 4 °C; masses estimated from standard markers; dimer to monomers.

Substitutions are numbered along the chain they refer to. Names may count otherwise.

B1: wt‐MBP‐(pep)Xa‐hPAH‐RD^1–120 fusion protein (domain or fragment, human, UniProt P00439 1-120, looked up)
chain: MSTAVLENPGLGRKLSDFGQETSYIEDNCNQNGAISLIFSLKEEVGALAKVLRLFEENDVNLTHIESRPSRLKKDEYEFFTHLDKRSLPALTNIIKILRHDIGATVHELSRDKKKDTVPW
notes: N-terminal regulatory domain (RD) of human phenylalanine hydroxylase (hPAH), residues 1-120 (stop signal introduced in codon 121), SwissProt P00439; From pMAL‐hPAH‐RD^1–120 (pMAL-c2 vector); a factor Xa cleavage peptide (pep)Xa lies between MBP and the RD; Isolated by SEC as a dimeric and a monomeric fraction; also called MBP‐hPAH‐RD^1–120; wt‐MBP‐hPAH‐RD; source: E. coli, purified (amylose …)
In general, stoichiometry N refers to a count of units in the complex or per binding partner. Regarding B1, the “stoichiometry N” value was 2.

B2: MBP‐hPAH‐G46S‐RD^1–120 fusion protein (domain or fragment, human, UniProt P00439 1-120, looked up)
chain: B1 chain with G46S
notes: From pMAL‐hPAH‐G46S‐RD^1–120; a factor Xa cleavage peptide lies between MBP and the RD; G46S is a mutation found in patients with phenylketonuria; also called hPAH‐G46S‐RD^1–120 dimer fusion protein; source: E. coli, purified (amylose resin, SEC); not shown: MBP, N-terminal, kept
On to B2, for which the “stoichiometry N” value is 2.
